From US20260275317A1, “CHIMERIC ENDOLYSINS WITH ACTIVITY AGAINST STREPTOCOCCI AND STAPHYLOCOCCI” (UNIVERSITEIT GENT, priority 2023, published 2026)

Legend:
S. aureus = assay: TRA and TKA against S. aureus mastitis isolates; type: cell-based, Staphylococcus aureus; conditions: S. aureus (sub)clinical isolates
Procedure: Concerning the time killing assay, an overnight bacterial culture was diluted 1:10 for S. uberis, S. agalactiae-& dysgalactiae or 1:100 for S. aureus in PBS or UHT-pasteurized whole cow's milk. A volume of 10 μL thereof was combined with an equal amount of chimeric endolysin in PBS (or only PBS as negative control) in triplicate and incubated in a covered 96-well microtiter plate at 37° C. for 2 h. The dose was low (i.e. 0.25 μM), but this was chosen to differentiate between less and better performing variants, consequently allowing a ranking. Finally, these fractions were serially diluted 1:10 in PBS. 5 μL of each fraction was spotted on TSA or BHI-agar and incubated overnight at 37° C. The following day, colony forming units (CFU) were counted and converted to CFU/mL to calculate logarithmic reductions in comparison with the negative control. The relative scores were calculated by dividing the observed logarithmic reduction for each endolysin by the maximal reduction observed for that specific condition and strain. Next, this value was divided by the number of conditions and strains tested (i.e., 8=4 bacterial strains×2 conditions (PBS/UHT-milk)). […] Next, the OD600 was measured using a Tecan infinite 200 PRO plate reader (Tecan, Switzerland) every 15 seconds at 37° C., shaking the 96-well plate between each measurement. […]

[1] = tested on: stationary phase S. uberis; assay: Time killing assay (TKA), S. uberis; type: cell-based, Streptococcus uberis; conditions: 0.3 μM; for ΔLog10 (CFU/mL): 1 h
Procedure: Concerning the time killing assay, an overnight bacterial culture was diluted 1:10 for S. uberis, S. agalactiae-& dysgalactiae or 1:100 for S. aureus in PBS or UHT-pasteurized whole cow's milk. […] Finally, these fractions were serially diluted 1:10 in PBS. 5 μL of each fraction was spotted on TSA or BHI-agar and incubated overnight at 37° C. The following day, colony forming units (CFU) were counted and converted to CFU/mL to calculate logarithmic reductions in comparison with the negative control. The relative scores were calculated by dividing the observed logarithmic reduction for each endolysin by the maximal reduction observed for that specific condition and strain. Next, this value was divided by the number of conditions and strains tested (i.e., 8=4 bacterial strains×2 conditions (PBS/UHT-milk)). As such, the best performing candidate in each individual assay received a score of 0.125 (=(1/1)/8). […] Turbidity reduction assays were performed by combining 100 μL of overnight grown bacterial cells with an equal volume of purified enzyme at the desired concentration. Bacterial cells were washed with PBS and resuspended in a 1:1 ratio with enzyme to an OD600 of approximately 1.0. Next, the OD600 was measured using a Tecan infinite 200 PRO plate reader (Tecan, Switzerland) every 15 seconds at 37° C., shaking the 96-well plate between each measurement.
(§1) Time killing and turbidity reduction assays were performed as previously described in 1.3.1.
Time killing assays were performed as previously described in 1.3.1.

[2] = tested on: stationary phase S. uberis; assay: Turbidity reduction assay (TRA), S. uberis; type: cell-based, Streptococcus uberis; conditions: 0.3 μM
Procedure: (§2) Concerning the time killing assay, an overnight bacterial culture was diluted 1:10 for S. uberis, S. agalactiae-& dysgalactiae or 1:100 for S. aureus in PBS or UHT-pasteurized whole cow's milk. A volume of 10 μL thereof was combined with an equal amount of chimeric endolysin in PBS (or only PBS as negative control) in triplicate and incubated in a covered 96-well microtiter plate at 37° C. for 2 h. The dose was low (i.e. 0.25 μM), but this was chosen to differentiate between less and better performing variants, consequently allowing a ranking. Finally, these fractions were serially diluted 1:10 in PBS. 5 μL of each fraction was spotted on TSA or BHI-agar and incubated overnight at 37° C. The following day, colony forming units (CFU) were counted and converted to CFU/mL to calculate logarithmic reductions in comparison with the negative control. The relative scores were calculated by dividing the observed logarithmic reduction for each endolysin by the maximal reduction observed for that specific condition and strain. Next, this value was divided by the number of conditions and strains tested (i.e., 8=4 bacterial strains×2 conditions (PBS/UHT-milk)). As such, the best performing candidate in each individual assay received a score of 0.125 (=(1/1)/8). […] Turbidity reduction assays were performed by combining 100 μL of overnight grown bacterial cells with an equal volume of purified enzyme at the desired concentration. Bacterial cells were washed with PBS and resuspended in a 1:1 ratio with enzyme to an OD600 of approximately 1.0. Next, the OD600 was measured using a Tecan infinite 200 PRO plate reader (Tecan, Switzerland) every 15 seconds at 37° C., shaking the 96-well plate between each measurement.
as §1

[3] = tested on: S. uberis, S. aureus, S. agalactiae and S. dysgalactiae; assay: 2 h time killing assay in PBS and UHT-milk, relative in vitro scoring; type: cell-based; conditions: 0.25 μM
Procedure: as §2, with “The dose was low (i.e. 0.25 μM), but this was chosen to differentiate between less and better performing variants, consequently allowing a ranking.” left out
Stationary phase S. uberis 0140J or S. aureus N305 and one randomly chosen clinical isolate of S. uberis, S. aureus, S. agalactiae and S. dysgalactiae were challenged with a final concentration of 0.25 μM endolysin in a 2 h time killing assay (TKA) in both phosphate buffered saline (PBS) and ultra-high temperature pasteurized whole cow's milk (UHT-milk).

[4] = Clinical S. uberis 1 (Unknown ST and GCC)
[5] = Clinical S. uberis 2 (Unknown ST, GCC 5)
[6] = Clinical S. uberis 3 (Unknown ST, GCC 5)
[7] = Clinical S. uberis 4 (ST 815, GCC 143)
[8] = Clinical S. uberis 5 (ST 944, GCC 5)
[9] = Subclinical S. uberis 1 (ST 808, GCC 143)
[10] = Subclinical S. uberis 2 (Unknown ST and GCC)
[11] = Subclinical S. uberis 3 (Unknown ST, GCC 5)
[12] = Subclinical S. uberis 4 (Unknown ST and GCC)

B1: NC2: chimeric endolysin SEQ ID NO: 14; CPP + PlySs2 CHAP + PlySs2 SH3_5 + PlySs9 amidase_3 (protein)
chain: MRRRRRRRRGATTVNEALNNVRAQVGSGVSVGNGECYALASWYERMISPDATVGLGAGVGWVSGAIGDTISAKNIGSSYNWQANGWTVSTSGPFKAGQIVTLGATPGNPYGHVVIVEAVDGDRLTILEQNYGGKRYPVRNYYSAASYRQQVVHYITPPGTVAQSAPNLAGAGSRSYRETGTMTVTVDALNVRRAPNTSGEIVAVYKRGESFDYDTVIIDVNGYVWVSYIGGSGKRNYVATGATKDGKRFGNAWGTFKGSGKHLVICGHGQGRTGYDPGAVNAKLGITEAGKVRELSKLMSKYSGQQIDFITEQNVYDYRSITSIGKGYDSITELHFNAFNGSAKGTEVLIQSSLEADKEDMAILSLLSRYFQNRGIKKVDWLYNANQAASRGYTYRLVEIAFIDNEQDMAIFENKKEDIAKGLVSAITGVEVKTIVPSPPSSTVGSSGTPSKSIYLVGDSLRVLPHATHYQTGQKIANWVKGRTYKILQVKNVHQSNSKRAYLLDGIKSWVLEQDVEGTTKGHSKYHHHHHH
B1 was tested, and the “enzymatic (ΔOD600) and killing (Δ log10) activity, NC2 pairwise versus NC5” value (S. aureus) was “significantly (p<0.001) improved enzymatic (i.e., ΔOD600) and killing (i.e., Δ log10) activity”, the “ΔLog10 (CFU/mL)” value [1, 4] was 0.00 Log10 (CFU/mL) and the “ΔLog10 (CFU/mL)” value [1, 5] was 4.16 Log10 (CFU/mL). The “ΔLog10 (CFU/mL)” value [1, 6] was 1.66 Log10 (CFU/mL), the “ΔLog10 (CFU/mL)” value [1, 7] was 0.01 Log10 (CFU/mL) and the “ΔLog10 (CFU/mL)” value [1, 8] was 0.86 Log10 (CFU/mL). For the same molecule, the “Δ log10” value ([1]; S. uberis 0140J) was 0.90±0.03 log10, the “ΔLog10 (CFU/mL)” value [1, 9] was 2.84 Log10 (CFU/mL) and the “ΔLog10 (CFU/mL)” value [1, 10] was 1.02 Log10 (CFU/mL). The “ΔLog10 (CFU/mL)” value [1, 11] was 1.31 Log10 (CFU/mL), the “ΔLog10 (CFU/mL)” value [1, 12] was 2.84 Log10 (CFU/mL) and the “lysis speed (ΔOD600/min)/μM” value [2, 4] was 0.03 (ΔOD600/min)/μM. For the same molecule, the ΔOD600 ([2]; Clinical S. uberis 1 (Unknown ST and GCC), 1 h) was 0.32, the “lysis speed (ΔOD600/min)/μM” value [2, 5] was 0.08 (ΔOD600/min)/μM and the ΔOD600 ([2]; Clinical S. uberis 2 (Unknown ST, GCC 5), 1 h) was 0.54. For the same molecule, the “lysis speed (ΔOD600/min)/μM” value [2, 6] was 0.22 (ΔOD600/min)/μM, the ΔOD600 ([2]; Clinical S. uberis 3 (Unknown ST, GCC 5), 1 h) was 0.72 and the “lysis speed (ΔOD600/min)/μM” value [2, 7] was 0.04 (ΔOD600/min)/μM. The ΔOD600 ([2]; Clinical S. uberis 4 (ST 815, GCC 143), 1 h) was 0.30, the “lysis speed (ΔOD600/min)/μM” value [2, 8] was 0.12 (ΔOD600/min)/μM and the ΔOD600 ([2]; Clinical S. uberis 5 (ST 944, GCC 5), 1 h) was 0.63. The ΔOD600 ([2]; S. uberis 0140J) was 0.53±0.01, the “lysis speed (ΔOD600/min)/μM” value [2, 9] was 0.18 (ΔOD600/min)/μM and the ΔOD600 ([2]; Subclinical S. uberis 1 (ST 808, GCC 143), 1 h) was 0.65. The “lysis speed (ΔOD600/min)/μM” value [2, 10] was 0.06 (ΔOD600/min)/μM, the ΔOD600 ([2]; Subclinical S. uberis 2 (Unknown ST and GCC), 1 h) was 0.59 and the “lysis speed (ΔOD600/min)/μM” value [2, 11] was 0.18 (ΔOD600/min)/μM. For the same molecule, the ΔOD600 ([2]; Subclinical S. uberis 3 (Unknown ST, GCC 5), 1 h) was 0.67, the “lysis speed (ΔOD600/min)/μM” value [2, 12] was 0.15 (ΔOD600/min)/μM and the ΔOD600 ([2]; Subclinical S. uberis 4 (Unknown ST and GCC), 1 h) was 0.66. The “ranking by cumulative relative in vitro score” value [3] was “overall best performing candidates”.
